Columns and labels:
JMJ22 = target: T1, JMJ22 (Arabidopsis (cDNA clone from the …, UniProt Q67XX3 1-502)); test: two-hybrid; F-box proteins as GAL4-BD baits (pGBK-T7, AH109), ASK1/2 as GAL4-AD preys (pGAD-T7, Y187), mated; growth on SD-Leu-Trp-Ade-His + X-alpha-gal at 30 °C normalised to growth on SD-Leu-Trp, and beta-galactosidase activity assay (two independent assays); results told together; settings: partners not purified
T1 construct: F-box protein JMJ22; CDS PCR amplified from an ABRC cDNA clone and ligated in frame to the 3' end of the GAL4-BD CDS in pGBK-T7 (bait); source: yeast two-hybrid fusion
T1 sequence (looked up): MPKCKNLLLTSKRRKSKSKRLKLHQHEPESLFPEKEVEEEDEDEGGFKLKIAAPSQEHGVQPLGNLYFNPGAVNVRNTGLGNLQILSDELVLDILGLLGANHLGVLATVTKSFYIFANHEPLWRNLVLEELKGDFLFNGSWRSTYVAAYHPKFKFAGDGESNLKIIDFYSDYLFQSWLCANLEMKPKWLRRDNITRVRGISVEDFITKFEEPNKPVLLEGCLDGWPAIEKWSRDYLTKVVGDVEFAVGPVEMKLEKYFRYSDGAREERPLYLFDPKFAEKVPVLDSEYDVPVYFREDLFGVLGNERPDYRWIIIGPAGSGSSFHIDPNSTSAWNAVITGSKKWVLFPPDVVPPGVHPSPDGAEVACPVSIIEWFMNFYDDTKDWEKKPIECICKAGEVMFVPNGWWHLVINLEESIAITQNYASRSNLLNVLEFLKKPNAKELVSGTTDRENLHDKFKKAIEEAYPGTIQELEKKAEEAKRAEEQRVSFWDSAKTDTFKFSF

[1] = target: DIF (Arabidopsis (cDNA clone from the Arabidopsis Biological Resource Center)); test: as above

fold interaction strength against ASK2 (JMJ22): > 2 fold | fold interaction strength against ASK2 [1]: > 2 fold
B1: Arabidopsis Skp1-Like 1 (natural protein, A. thaliana, UniProt Q39255 1-160, looked up)
chain: MSAKKIVLKSSDGESFEVEEAVALESQTIAHMVEDDCVDNGVPLPNVTSKILAKVIEYCKRHVEAAASKAEAVEGAATSDDDLKAWDADFMKIDQATLFELILAANYLNIKNLLDLTCQTVADMIKGKTPEEIRTTFNIKNDFTPEEEEEVRRENQWAFE
notes: ASK1 (A. thaliana Skp1-Like 1); CDS PCR amplified from an ABRC cDNA clone and ligated in frame to the 3' end of the GAL4-AD CDS in pGAD-T7 (prey); also called ASK1; source: yeast two-hybrid fusion
